pKd: −log10 of the molar value.
Experiments:
Experiment in all cases: SPR
[1] = molecular target: H. polygyrus Alarmin Release Inhibitor (HpARI), full-length (Heligmosomoides polygyrus)
[2] = molecular target: HpARI_CCP1/2 (truncation of HpARI lacking CCP3) (Heligmosomoides polygyrus)
[3] = molecular target: HpARI_CCP2/3 (truncation of HpARI lacking CCP1) (Heligmosomoides polygyrus)
Chain of HpARI_CCP2/3 (truncation of HpARI lacking CCP1) (Heligmosomoides polygyrus) (A0A3P7XL18 126-297): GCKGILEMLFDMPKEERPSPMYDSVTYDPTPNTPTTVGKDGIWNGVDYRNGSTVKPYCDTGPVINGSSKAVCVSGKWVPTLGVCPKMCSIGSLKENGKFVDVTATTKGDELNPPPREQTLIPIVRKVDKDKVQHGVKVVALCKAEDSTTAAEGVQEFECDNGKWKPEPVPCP

Chain of HpARI_CCP1/2 (truncation of HpARI lacking CCP3) (Heligmosomoides polygyrus) (A0A3P7XL18 65-211): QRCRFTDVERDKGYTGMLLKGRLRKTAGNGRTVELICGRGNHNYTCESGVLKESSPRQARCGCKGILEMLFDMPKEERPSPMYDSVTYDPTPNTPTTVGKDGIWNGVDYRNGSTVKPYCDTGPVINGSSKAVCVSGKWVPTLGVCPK

recombinant murine IL-33 (from UniProt Q8BVZ5 1-266) (ligand)
pKd [1]: 8.96
koff [1]: 0.00015 s⁻¹
pKd [2]: 8.01
koff [2]: 0.003 s⁻¹
pKd [3]: 8.85

From paper doi:10.1101/2020.04.13.035477
